Assay results taken from patent US20140087995A1 (published 2014).
Numbered stars: 1 amine (or outer) side, 2 acyl side, 3 side chain; on linkers, the order of the positions; unused ones are H or OH. Bridge positions count the residues as written; N and C are the ends. Side chains are listed from the residue outwards. Ends that are not written are not given here. * marks the point of attachment. C20 diacid = O=C(O)CCCCCCCCCCCCCCCCCCC(=O)*; γGlu = O=C(O)[C@H](CCC(=O)[*:2])N[*:1]; AEEA = NCCOCCOCC(=O)O

T1: human calcitonin receptor (human, UniProt P30988 25-474)
T1 construct: whole, on cells; Used as cell membranes prepared from the transfected BHK cells (Assay VII), not as intact cells; also called hCTR; hCT
T1 sequence (looked up): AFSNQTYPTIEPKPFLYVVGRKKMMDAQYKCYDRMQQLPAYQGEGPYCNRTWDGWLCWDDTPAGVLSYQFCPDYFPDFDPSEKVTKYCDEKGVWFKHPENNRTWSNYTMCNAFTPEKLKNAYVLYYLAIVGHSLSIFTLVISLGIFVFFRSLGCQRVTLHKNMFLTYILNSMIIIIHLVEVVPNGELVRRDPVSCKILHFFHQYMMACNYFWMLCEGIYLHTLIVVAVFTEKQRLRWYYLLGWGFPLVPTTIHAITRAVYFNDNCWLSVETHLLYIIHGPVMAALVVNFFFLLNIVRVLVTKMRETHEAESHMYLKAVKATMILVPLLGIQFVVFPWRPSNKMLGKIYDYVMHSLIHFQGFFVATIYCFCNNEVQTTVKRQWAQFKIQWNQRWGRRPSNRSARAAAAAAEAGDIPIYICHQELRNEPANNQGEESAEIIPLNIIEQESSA

B1: N^ε-[(4S)-4-carboxy-4-(19-carboxynonadecanoylamino)butanoyl]Lys[Arg1,Arg17,Pro21,Pro27,His35]-h-amylin (peptide)
peptide: K([γGlu-C20 diacid])RCNTATCATQRLANFLRHSSPNFGAIPSSTNVGSHTY-NH2
modifications: disulfide 3-8; N-terminus assumed
SMILES: CC[C@H](C)[C@H](NC(=O)[C@H](C)NC(=O)CNC(=O)[C@H](Cc1ccccc1)NC(=O)[C@H](CC(N)=O)NC(=O)[C@@H]1CCCN1C(=O)[C@H](CO)NC(=O)[C@H](CO)NC(=O)[C@H](Cc1c[nH]cn1)NC(=O)[C@H](CCCNC(=N)N)NC(=O)[C@H](CC(C)C)NC(=O)[C@H](Cc1ccccc1)NC(=O)[C@H](CC(N)=O)NC(=O)[C@H](C)NC(=O)[C@H](CC(C)C)NC(=O)[C@H](CCCNC(=N)N)NC(=O)[C@H](CCC(N)=O)NC(=O)[C@@H](NC(=O)[C@H](C)NC(=O)[C@@H]1CSSC[C@H](NC(=O)[C@H](CCCNC(=N)N)NC(=O)[C@@H](N)CCCCNC(=O)CC[C@H](NC(=O)CCCCCCCCCCCCCCCCCCC(=O)O)C(=O)O)C(=O)N[C@@H](CC(N)=O)C(=O)N[C@@H]([C@@H](C)O)C(=O)N[C@@H](C)C(=O)N[C@@H]([C@@H](C)O)C(=O)N1)[C@@H](C)O)C(=O)N1CCC[C@H]1C(=O)N[C@@H](CO)C(=O)N[C@@H](CO)C(=O)N[C@H](C(=O)N[C@@H](CC(N)=O)C(=O)N[C@H](C(=O)NCC(=O)N[C@@H](CO)C(=O)N[C@@H](Cc1c[nH]cn1)C(=O)N[C@H](C(=O)N[C@@H](Cc1ccc(O)cc1)C(N)=O)[C@@H](C)O)C(C)C)[C@@H](C)O
notes: also called compound 44
B2: N^-1-[(4S)-4-carboxy-4-(19-carboxynonadecanoylamino)butanoyl]-Gly[Arg1,Arg17,Pro21,Pro27,His35]-h-amylin (peptide)
peptide: {C20 diacid-γGlu}-GRCNTATCATQRLANFLRHSSPNFGAIPSSTNVGSHTY-NH2
modifications: disulfide 3-8
SMILES: CC[C@H](C)[C@H](NC(=O)[C@H](C)NC(=O)CNC(=O)[C@H](Cc1ccccc1)NC(=O)[C@H](CC(N)=O)NC(=O)[C@@H]1CCCN1C(=O)[C@H](CO)NC(=O)[C@H](CO)NC(=O)[C@H](Cc1c[nH]cn1)NC(=O)[C@H](CCCNC(=N)N)NC(=O)[C@H](CC(C)C)NC(=O)[C@H](Cc1ccccc1)NC(=O)[C@H](CC(N)=O)NC(=O)[C@H](C)NC(=O)[C@H](CC(C)C)NC(=O)[C@H](CCCNC(=N)N)NC(=O)[C@H](CCC(N)=O)NC(=O)[C@@H](NC(=O)[C@H](C)NC(=O)[C@@H]1CSSC[C@H](NC(=O)[C@H](CCCNC(=N)N)NC(=O)CNC(=O)CC[C@H](NC(=O)CCCCCCCCCCCCCCCCCCC(=O)O)C(=O)O)C(=O)N[C@@H](CC(N)=O)C(=O)N[C@@H]([C@@H](C)O)C(=O)N[C@@H](C)C(=O)N[C@@H]([C@@H](C)O)C(=O)N1)[C@@H](C)O)C(=O)N1CCC[C@H]1C(=O)N[C@@H](CO)C(=O)N[C@@H](CO)C(=O)N[C@H](C(=O)N[C@@H](CC(N)=O)C(=O)N[C@H](C(=O)NCC(=O)N[C@@H](CO)C(=O)N[C@@H](Cc1c[nH]cn1)C(=O)N[C@H](C(=O)N[C@@H](Cc1ccc(O)cc1)C(N)=O)[C@@H](C)O)C(C)C)[C@@H](C)O
notes: also called compound 47
B3: N{Alpha-1}-[(4S)-4-carboxy-4-(19-carboxynonadecanoylamino)butanoyl]-[Glu14,Arg17,Pro21,Pro27,Lys34]-h-amylin (peptide)
peptide: {C20 diacid-γGlu}-KCNTATCATQRLAEFLRHSSPNFGAIPSSTNVGKNTY-NH2
modifications: disulfide 2-7
SMILES: CC[C@H](C)[C@H](NC(=O)[C@H](C)NC(=O)CNC(=O)[C@H](Cc1ccccc1)NC(=O)[C@H](CC(N)=O)NC(=O)[C@@H]1CCCN1C(=O)[C@H](CO)NC(=O)[C@H](CO)NC(=O)[C@H](Cc1c[nH]cn1)NC(=O)[C@H](CCCNC(=N)N)NC(=O)[C@H](CC(C)C)NC(=O)[C@H](Cc1ccccc1)NC(=O)[C@H](CCC(=O)O)NC(=O)[C@H](C)NC(=O)[C@H](CC(C)C)NC(=O)[C@H](CCCNC(=N)N)NC(=O)[C@H](CCC(N)=O)NC(=O)[C@@H](NC(=O)[C@H](C)NC(=O)[C@@H]1CSSC[C@H](NC(=O)[C@H](CCCCN)NC(=O)CC[C@H](NC(=O)CCCCCCCCCCCCCCCCCCC(=O)O)C(=O)O)C(=O)N[C@@H](CC(N)=O)C(=O)N[C@@H]([C@@H](C)O)C(=O)N[C@@H](C)C(=O)N[C@@H]([C@@H](C)O)C(=O)N1)[C@@H](C)O)C(=O)N1CCC[C@H]1C(=O)N[C@@H](CO)C(=O)N[C@@H](CO)C(=O)N[C@H](C(=O)N[C@@H](CC(N)=O)C(=O)N[C@H](C(=O)NCC(=O)N[C@@H](CCCCN)C(=O)N[C@@H](CC(N)=O)C(=O)N[C@H](C(=O)N[C@@H](Cc1ccc(O)cc1)C(N)=O)[C@@H](C)O)C(C)C)[C@@H](C)O
notes: also called compound 36
B4: N^ε1-[2-[2-[2-[[(4S)-4-carboxy-4-(19-carboxynonadecanoylamino)butanoyl]amino]ethoxy]ethoxy]acetyl]-[Arg17,Pro21,Pro27]-h-amylin (peptide)
peptide: K([AEEA-γGlu-C20 diacid])CNTATCATQRLANFLRHSSPNFGAIPSSTNVGSNTY-NH2
modifications: disulfide 2-7; N-terminus assumed
SMILES: CC[C@H](C)[C@H](NC(=O)[C@H](C)NC(=O)CNC(=O)[C@H](Cc1ccccc1)NC(=O)[C@H](CC(N)=O)NC(=O)[C@@H]1CCCN1C(=O)[C@H](CO)NC(=O)[C@H](CO)NC(=O)[C@H](Cc1c[nH]cn1)NC(=O)[C@H](CCCNC(=N)N)NC(=O)[C@H](CC(C)C)NC(=O)[C@H](Cc1ccccc1)NC(=O)[C@H](CC(N)=O)NC(=O)[C@H](C)NC(=O)[C@H](CC(C)C)NC(=O)[C@H](CCCNC(=N)N)NC(=O)[C@H](CCC(N)=O)NC(=O)[C@@H](NC(=O)[C@H](C)NC(=O)[C@@H]1CSSC[C@H](NC(=O)[C@@H](N)CCCCNC(=O)COCCOCCNC(=O)CC[C@H](NC(=O)CCCCCCCCCCCCCCCCCCC(=O)O)C(=O)O)C(=O)N[C@@H](CC(N)=O)C(=O)N[C@@H]([C@@H](C)O)C(=O)N[C@@H](C)C(=O)N[C@@H]([C@@H](C)O)C(=O)N1)[C@@H](C)O)C(=O)N1CCC[C@H]1C(=O)N[C@@H](CO)C(=O)N[C@@H](CO)C(=O)N[C@H](C(=O)N[C@@H](CC(N)=O)C(=O)N[C@H](C(=O)NCC(=O)N[C@@H](CO)C(=O)N[C@@H](CC(N)=O)C(=O)N[C@H](C(=O)N[C@@H](Cc1ccc(O)cc1)C(N)=O)[C@@H](C)O)C(C)C)[C@@H](C)O
notes: also called compound 41
B5: N^α1-[(4S)-4-carboxy-4-(19-carboxynonadecanoylamino)butanoyl]-[Glu14,Arg17,Pro21,Pro25,Pro28,Pro29]-h-amylin (peptide)
peptide: {C20 diacid-γGlu}-KCNTATCATQRLAEFLRHSSPNFGPILPPTNVGSNTY-NH2
modifications: disulfide 2-7
SMILES: CC[C@H](C)[C@H](NC(=O)[C@@H]1CCCN1C(=O)CNC(=O)[C@H](Cc1ccccc1)NC(=O)[C@H](CC(N)=O)NC(=O)[C@@H]1CCCN1C(=O)[C@H](CO)NC(=O)[C@H](CO)NC(=O)[C@H](Cc1c[nH]cn1)NC(=O)[C@H](CCCNC(=N)N)NC(=O)[C@H](CC(C)C)NC(=O)[C@H](Cc1ccccc1)NC(=O)[C@H](CCC(=O)O)NC(=O)[C@H](C)NC(=O)[C@H](CC(C)C)NC(=O)[C@H](CCCNC(=N)N)NC(=O)[C@H](CCC(N)=O)NC(=O)[C@@H](NC(=O)[C@H](C)NC(=O)[C@@H]1CSSC[C@H](NC(=O)[C@H](CCCCN)NC(=O)CC[C@H](NC(=O)CCCCCCCCCCCCCCCCCCC(=O)O)C(=O)O)C(=O)N[C@@H](CC(N)=O)C(=O)N[C@@H]([C@@H](C)O)C(=O)N[C@@H](C)C(=O)N[C@@H]([C@@H](C)O)C(=O)N1)[C@@H](C)O)C(=O)N[C@@H](CC(C)C)C(=O)N1CCC[C@H]1C(=O)N1CCC[C@H]1C(=O)N[C@H](C(=O)N[C@@H](CC(N)=O)C(=O)N[C@H](C(=O)NCC(=O)N[C@@H](CO)C(=O)N[C@@H](CC(N)=O)C(=O)N[C@H](C(=O)N[C@@H](Cc1ccc(O)cc1)C(N)=O)[C@@H](C)O)C(C)C)[C@@H](C)O
notes: also called compound 6
B6: N^ε1-[2-[2-[2-(19-carboxynonadecanoylamino)ethoxy]ethoxy]acetyl]-[Arg17,Pro21,Pro27]-h-amylin (peptide)
peptide: K([AEEA-C20 diacid])CNTATCATQRLANFLRHSSPNFGAIPSSTNVGSNTY-NH2
modifications: disulfide 2-7; N-terminus assumed
SMILES: CC[C@H](C)[C@H](NC(=O)[C@H](C)NC(=O)CNC(=O)[C@H](Cc1ccccc1)NC(=O)[C@H](CC(N)=O)NC(=O)[C@@H]1CCCN1C(=O)[C@H](CO)NC(=O)[C@H](CO)NC(=O)[C@H](Cc1c[nH]cn1)NC(=O)[C@H](CCCNC(=N)N)NC(=O)[C@H](CC(C)C)NC(=O)[C@H](Cc1ccccc1)NC(=O)[C@H](CC(N)=O)NC(=O)[C@H](C)NC(=O)[C@H](CC(C)C)NC(=O)[C@H](CCCNC(=N)N)NC(=O)[C@H](CCC(N)=O)NC(=O)[C@@H](NC(=O)[C@H](C)NC(=O)[C@@H]1CSSC[C@H](NC(=O)[C@@H](N)CCCCNC(=O)COCCOCCNC(=O)CCCCCCCCCCCCCCCCCCC(=O)O)C(=O)N[C@@H](CC(N)=O)C(=O)N[C@@H]([C@@H](C)O)C(=O)N[C@@H](C)C(=O)N[C@@H]([C@@H](C)O)C(=O)N1)[C@@H](C)O)C(=O)N1CCC[C@H]1C(=O)N[C@@H](CO)C(=O)N[C@@H](CO)C(=O)N[C@H](C(=O)N[C@@H](CC(N)=O)C(=O)N[C@H](C(=O)NCC(=O)N[C@@H](CO)C(=O)N[C@@H](CC(N)=O)C(=O)N[C@H](C(=O)N[C@@H](Cc1ccc(O)cc1)C(N)=O)[C@@H](C)O)C(C)C)[C@@H](C)O
notes: also called compound 43
B7: N^α1-[2-[2-[2-[[2-[2-[2-[[(4S)-4-carboxy-4-(19-carboxynonadecanoylamino)butanoyl]amino]ethoxy]ethoxy]acetyl]amino]ethoxy]ethoxy]acetyl]-[Arg17,Pro21,Pro27]-h-am … (peptide)
peptide: KCNTATCATQRLANFLRHSSPNFGAIPSSTNVGSNTY
modifications: C20 diacid-gGlu-2xOEG on the alpha amino group of the N-terminal Lys1; disulfide Cys2-Cys7; C-terminal amide
notes: also called compound 24

molecular target: T1, human calcitonin receptor; assay: SPA competition against 125I-calcitonin, membranes with human calcitonin receptor (Assay VII)
Method in brief: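 BHK hCTR membranes 35 ng/μL + SPA beads 0.05 mg/well; buffer 50 mM Hepes pH 7.4, 1 mM CaCl2, 5 mM MgCl₂, 0.1% OA, 0.02% Tween20. 120 min, 25° C., shaking. Scintillation count; IC50 by one-site binding competition.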

Row | IC50 [nM] | Binder
1 | 4.87 | B1
2 | 15.5 | B2
3 | 6.3 | B3
4 | 21.3 | B4
5 | 19.9 | B5
6 | 2.64 | B6
7 | 102 | B7
